Data from patent US20220184172.

Legend:
[1] = test system: recombinant Caspase-6 (Origene, Cat. TP760261)
[2] = test system: T1, recombinant Bid (R&D Systems, Cat. 846-BD-50)
T1 sequence: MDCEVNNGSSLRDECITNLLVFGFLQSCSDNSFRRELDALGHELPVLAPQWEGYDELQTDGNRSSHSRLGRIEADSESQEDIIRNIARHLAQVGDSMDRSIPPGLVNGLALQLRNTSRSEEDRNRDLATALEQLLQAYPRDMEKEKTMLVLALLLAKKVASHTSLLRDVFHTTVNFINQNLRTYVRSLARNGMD

[3] = test system: purified Bid-HA expressed in HEK293T cells
[4] = test system: purified Bax-HA expressed in HEK293T cells
[5] = test system: purified caspase-6-myc expressed in HEK293T cells

Sequence of recombinant AMPKα1β1γ1 active kinase (Q13131 whole entry): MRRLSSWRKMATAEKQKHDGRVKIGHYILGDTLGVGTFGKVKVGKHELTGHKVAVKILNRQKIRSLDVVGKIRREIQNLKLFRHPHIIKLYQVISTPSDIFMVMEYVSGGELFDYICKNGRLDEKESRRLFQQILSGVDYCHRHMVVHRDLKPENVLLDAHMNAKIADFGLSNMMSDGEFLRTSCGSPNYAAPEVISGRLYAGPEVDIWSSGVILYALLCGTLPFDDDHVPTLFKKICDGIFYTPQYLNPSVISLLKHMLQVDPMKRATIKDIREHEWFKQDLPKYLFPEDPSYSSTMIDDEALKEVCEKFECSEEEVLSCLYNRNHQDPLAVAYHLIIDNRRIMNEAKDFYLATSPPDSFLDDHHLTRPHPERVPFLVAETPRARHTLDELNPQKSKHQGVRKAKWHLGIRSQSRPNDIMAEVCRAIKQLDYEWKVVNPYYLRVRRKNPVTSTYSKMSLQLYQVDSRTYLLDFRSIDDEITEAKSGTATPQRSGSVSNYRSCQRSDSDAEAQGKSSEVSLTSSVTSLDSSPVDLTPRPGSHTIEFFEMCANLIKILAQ
Sequence of recombinant AMPKα1β1γ1 active kinase (Q9Y478 2-270, further chain): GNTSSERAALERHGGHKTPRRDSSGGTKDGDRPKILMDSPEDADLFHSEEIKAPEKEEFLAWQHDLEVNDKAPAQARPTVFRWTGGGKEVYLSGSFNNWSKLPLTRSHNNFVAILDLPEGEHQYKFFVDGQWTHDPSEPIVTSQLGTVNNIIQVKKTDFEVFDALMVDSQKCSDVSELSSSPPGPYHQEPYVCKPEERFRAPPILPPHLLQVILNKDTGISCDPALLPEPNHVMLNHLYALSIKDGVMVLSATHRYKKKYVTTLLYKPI
Sequence of recombinant AMPKα1β1γ1 active kinase (P54619 whole entry, further chain): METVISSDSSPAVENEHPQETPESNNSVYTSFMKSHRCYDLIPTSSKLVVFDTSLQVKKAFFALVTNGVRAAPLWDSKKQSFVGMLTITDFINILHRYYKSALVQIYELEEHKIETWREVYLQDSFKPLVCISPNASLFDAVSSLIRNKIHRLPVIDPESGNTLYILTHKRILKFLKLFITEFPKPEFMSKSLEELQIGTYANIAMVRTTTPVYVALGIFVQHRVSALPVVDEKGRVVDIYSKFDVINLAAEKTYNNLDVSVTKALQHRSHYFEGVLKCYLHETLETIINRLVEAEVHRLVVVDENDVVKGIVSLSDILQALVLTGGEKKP
Sequence of recombinant AMPKα2β1γ1 active kinase (P54646 whole entry): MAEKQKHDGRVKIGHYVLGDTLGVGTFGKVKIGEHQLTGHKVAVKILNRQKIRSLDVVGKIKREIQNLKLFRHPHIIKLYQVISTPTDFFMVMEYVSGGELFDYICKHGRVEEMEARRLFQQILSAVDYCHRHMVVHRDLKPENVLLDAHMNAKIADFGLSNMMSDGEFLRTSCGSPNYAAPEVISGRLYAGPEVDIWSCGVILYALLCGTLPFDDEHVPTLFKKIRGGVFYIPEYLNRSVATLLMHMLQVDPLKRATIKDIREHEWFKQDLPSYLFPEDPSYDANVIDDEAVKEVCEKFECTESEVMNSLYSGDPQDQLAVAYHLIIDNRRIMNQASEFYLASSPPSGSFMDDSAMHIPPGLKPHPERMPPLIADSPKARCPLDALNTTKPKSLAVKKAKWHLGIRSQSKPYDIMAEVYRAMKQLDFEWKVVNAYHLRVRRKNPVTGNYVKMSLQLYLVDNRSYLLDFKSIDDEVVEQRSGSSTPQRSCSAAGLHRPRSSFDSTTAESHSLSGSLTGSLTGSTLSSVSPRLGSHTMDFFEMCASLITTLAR
Sequence of recombinant AMPKα2β1γ1 active kinase (Q9Y478 2-270, further chain): as the sequence (Q9Y478 2-270, further chain) above
Sequence of recombinant AMPKα2β1γ1 active kinase (P54619 whole entry, further chain): as the sequence (P54619 whole entry, further chain) above

active caspase-3
in vitro cleavage assay [1]: procaspase-6 was directly cleaved by caspase-3 and -7, but not caspase-8 or -9

active caspase-6
in vitro cleavage assay [2]: Active caspase-6 cleaves Bid to generate two cleaved peptide fragments
in vitro cleavage assay [3]: active caspase-6 cleaved purified Bcl2 family protein Bid (BH3 interacting-domain death agonist), but not Bax (Bcl2 associated X) in vitro
in vitro cleavage assay [4]: active caspase-6 cleaved purified Bcl2 family protein Bid (BH3 interacting-domain death agonist), but not Bax (Bcl2 associated X) in vitro

active caspase-7
in vitro cleavage assay [1]: procaspase-6 was directly cleaved by caspase-3 and -7, but not caspase-8 or -9

active caspase-8
in vitro cleavage assay [1]: procaspase-6 was directly cleaved by caspase-3 and -7, but not caspase-8 or -9

active caspase-9
in vitro cleavage assay [1]: procaspase-6 was directly cleaved by caspase-3 and -7, but not caspase-8 or -9

recombinant AMPKα1β1γ1 active kinase
in vitro kinase assay, phosphorylation of Ser257 [1]: Both recombinant AMPKα1 and AMPKα2 directly phosphorylated procaspase-6 at Ser^257 in vitro
in vitro kinase assay, phosphorylation of Ser257 (FIG. 15C) [5]: Both recombinant AMPKα1 and AMPKα2 directly phosphorylated procaspase-6 at Ser^257 in vitro

recombinant AMPKα2β1γ1 active kinase
in vitro kinase assay, phosphorylation of Ser257 [1]: Both recombinant AMPKα1 and AMPKα2 directly phosphorylated procaspase-6 at Ser^257 in vitro
